Assay results published in the RNAGym collection of RNA variant scans (doi:10.1073/pnas.2313332121).
Fewer inactive variants are shown than the library holds.

B1: TPR 5TU (parent)
chain: GGAUCUUCUCGAUCUAACAAAAAAGACAAAUCUGCCACAAAGCUUGAGAGCAUCUUCGGAUGCAGAGGCGGCAGCCUUCGGUGGCGCGAUAGCGCCAACGUUCUCAACUAUGACACGCAAAACGCGUGCUCCGUUGAAUGGAGUUUAUCAUG

Variants of: B1
Experiment: polymerase ribozyme fitness, log enrichment relative to wild type (log ratio); higher = more active; in vitro selection for triplet polymerase activity
Procedure, shortened: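 Each subunit of a heterodimeric triplet polymerase ribozyme was mutagenized into a library by PCR, transcribed, and subjected to one round of in vitro selection, run in triplicate. Libraries were annealed with a biotinylated primer, the partner subunit and triplets, incubated frozen at −7 °C, and extended constructs were gel-excised, captured on streptavidin beads and recovered by RT-PCR. Input and output libraries were sequenced on Illumina, keeping genotypes with ≥10 input reads and ≥1 read per output. Fitness is log base 2 of genotype enrichment divided by wild-type enrichment, from inverse-variance-weighted replicate averages.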

Going from A26U C96U C116G to A26G A49C A89U G92A U102G G140U, the “polymerase ribozyme fitness (log ratio)” value falls from -1.18 to no more than -4.2.

Going from C27A G58U C95U C96A G124U to A26U G46U A47U G74C C79G G92U G140A, the “polymerase ribozyme fitness (log ratio)” value falls from -4.08 to no more than -4.2.

C27A C36U C87G G126C C149U and C27A A28U A39C C54G C96A cannot be ordered by “polymerase ribozyme fitness (log ratio)” value: no more than -4.2 for the first, no more than -4.2 for the second.

Compared with G25U C69G G83U C95U, A26C A29C G65A C87G A97G A142G is lower in “polymerase ribozyme fitness (log ratio)” value: -3 for the first, no more than -4.2 for the second.

G25U A49G G59U C99A and G25U A47G A60G C75A A91U A122U G141C A142G cannot be ordered by “polymerase ribozyme fitness (log ratio)” value: no more than -4.2 for the first, no more than -4.2 for the second.

A26C U78C G88A C108G C114G C149G and A26C G88U G92U G117U cannot be ordered by “polymerase ribozyme fitness (log ratio)” value: no more than -4.2 for the first, no more than -4.2 for the second.

A26G U44A C54U C87A C99U U111G G143U and A26U A40C G68C G71U U82A A119C C125A A150C cannot be ordered by “polymerase ribozyme fitness (log ratio)” value: no more than -4.2 for the first, no more than -4.2 for the second.

A26C A47C A52C G58C G71A G100C C116A and A26G A29C C79A G100A cannot be ordered by “polymerase ribozyme fitness (log ratio)” value: no more than -4.2 for the first, no more than -4.2 for the second.

A26C A91G A121C U139C and C27A C54U A91C G94C cannot be ordered by “polymerase ribozyme fitness (log ratio)” value: no more than -4.2 for the first, no more than -4.2 for the second.

C27A A37U A91C and A26C C57A A60C G88A U109G A110G C118G are within 0.2 log units of each other in “polymerase ribozyme fitness (log ratio)” value: -4.17 for the first, -3.98 for the second.

Going from A26C G50U C54U C96G to A26G A89C A97C G143C, the “polymerase ribozyme fitness (log ratio)” value falls from -3.92 to no more than -4.2.

Going from A26G C38A A60U A64C C76U to G25U U55G A122U, the “polymerase ribozyme fitness (log ratio)” value rises from no more than -4.2 to -3.1.

A26C C79A C87A U134C A150U and A26G C36U G65C A91G U111G C149A cannot be ordered by “polymerase ribozyme fitness (log ratio)” value: no more than -4.2 for the first, no more than -4.2 for the second.

Going from A26U G80A A98C U101G to A26U A91G A115G A150C, the “polymerase ribozyme fitness (log ratio)” value falls from -3.73 to no more than -4.2.

Going from G25U A89C to A26U G42U U44A U55A G59U C103G A119G A120U G140U, the “polymerase ribozyme fitness (log ratio)” value falls from -3.41 to no more than -4.2.

Compared with A26U G62U U135A, A26U A39C A49G G128A A138G is lower in “polymerase ribozyme fitness (log ratio)” value: -2.77 for the first, no more than -4.2 for the second.

G25U G50C C87G G136U and A26U C93U C118U C125A cannot be ordered by “polymerase ribozyme fitness (log ratio)” value: no more than -4.2 for the first, no more than -4.2 for the second.

Compared with C27G A28C G48A U55A G68C C87U C108G, A26C G83C is higher in “polymerase ribozyme fitness (log ratio)” value: no more than -4.2 for the first, -2.82 for the second.

Going from G25U G84U to A26C C32G C54U C87G C95U, the “polymerase ribozyme fitness (log ratio)” value falls from -3.64 to -3.91.

First: A26C U56A A60U U82G
Second: G25U C32U C36A C85U C114U C129U U134C
The “polymerase ribozyme fitness (log ratio)” value of the first is higher: -2.45 for the first, no more than -4.2 for the second.

Compared with G25U C76U, G25U U44G U45A U56A G80A C85U A97U is lower in “polymerase ribozyme fitness (log ratio)” value: -2.44 for the first, no more than -4.2 for the second.

Going from A26G C75U C96U to G25U G86A C105U, the “polymerase ribozyme fitness (log ratio)” value rises from no more than -4.2 to -3.5.

A26C G86A U102A G128U C131G and A26U C36G U55A G58C C105U cannot be ordered by “polymerase ribozyme fitness (log ratio)” value: no more than -4.2 for the first, no more than -4.2 for the second.

Going from A26U A49G C93U G124C U135G A138G to A26G C95U C96U, the “polymerase ribozyme fitness (log ratio)” value rises from no more than -4.2 to -4.16.

Going from A26C C93G C114U to A26C A52U C54U G58A G71A G74C C87U C108A, the “polymerase ribozyme fitness (log ratio)” value falls from -4.19 to no more than -4.2.

First: G25U C132U
Second: A26U C54U C95U
The “polymerase ribozyme fitness (log ratio)” value of the first is lower: -2.32 for the first, -1.76 for the second.

Going from A26U G48A to C27A U33C G88C G141C, the “polymerase ribozyme fitness (log ratio)” value falls from -3.27 to no more than -4.2.

A26U C54A U56G C75A C93A U134A and A26U C35U U55A C96G G124A cannot be ordered by “polymerase ribozyme fitness (log ratio)” value: no more than -4.2 for the first, no more than -4.2 for the second.

First: A26C C35U U55A C76U C87G G92U A98G
Second: C27A G34U U53A G71C G88U C96U U144A U146A
The “polymerase ribozyme fitness (log ratio)” value of the first is higher: -3.11 for the first, no more than -4.2 for the second.

C27A U90G A107U and C27A G46A U53A U56G A91C A106C A110G A138G cannot be ordered by “polymerase ribozyme fitness (log ratio)” value: no more than -4.2 for the first, no more than -4.2 for the second.

Compared with A26U A37C A47G C85U U90A U145A U146C, G25U C96A A142G is higher in “polymerase ribozyme fitness (log ratio)” value: no more than -4.2 for the first, -4.05 for the second.

Compared with A26U A89G, A26C C76A is lower in “polymerase ribozyme fitness (log ratio)” value: -3.26 for the first, -3.75 for the second.

A26U C35U A47C C54G A64G A66U C93A A142G and A26G G59A A89C C105U cannot be ordered by “polymerase ribozyme fitness (log ratio)” value: no more than -4.2 for the first, no more than -4.2 for the second.

Going from A26U U56A to C27A U45G G46A A60U C95G G124U, the “polymerase ribozyme fitness (log ratio)” value falls from -2.17 to no more than -4.2.

First: C27A G50C G80A C95U
Second: A26U A60U U111G G141U
The “polymerase ribozyme fitness (log ratio)” value of the first is lower: no more than -4.2 for the first, -3.78 for the second.

A26U A28C A52C G58A U139G A147C and C27A G71U cannot be ordered by “polymerase ribozyme fitness (log ratio)” value: no more than -4.2 for the first, no more than -4.2 for the second.

G25U C32U A40U U56A G80C C85A C87A C116G U146G A150U and A26C G42A G46C A49G A52C C54U A91U C99U U109G C132U G140U cannot be ordered by “polymerase ribozyme fitness (log ratio)” value: no more than -4.2 for the first, no more than -4.2 for the second.

A26C G34C A52C C75A G80C and A26U A40U A91U A122U cannot be ordered by “polymerase ribozyme fitness (log ratio)” value: no more than -4.2 for the first, no more than -4.2 for the second.

A26C A29U C36A G42A U61A G70A A73C and A26U G59A G83A C87G C93G A97G U104C U139C cannot be ordered by “polymerase ribozyme fitness (log ratio)” value: no more than -4.2 for the first, no more than -4.2 for the second.

G25U U148A and A26U A60G C69A A97U C114U U135C cannot be ordered by “polymerase ribozyme fitness (log ratio)” value: no more than -4.2 for the first, no more than -4.2 for the second.

A26C C32A U53G U56A C75U U104A U111C A120G and A26U C103A C114U cannot be ordered by “polymerase ribozyme fitness (log ratio)” value: no more than -4.2 for the first, no more than -4.2 for the second.

For A26G C72U U78G C85G, the “polymerase ribozyme fitness (log ratio)” value was no more than -4.2.
